Reference: PMC10457771
Several values for one entry are separate records, joined by “and”; a condition that tells them apart may be missing. Identical values can stand only once.

Key:
[1] = target: central baseplate organization protein, gp11 (Vibrio phage XM1); experiment: cryo-EM structure; purified XM1 virions in SM buffer; 6-fold-symmetric reconstruction of the distal part of the extended tail (baseplate, part of tail tube and sheath), 3.2Å; interfaces analysed with PISA
[2] = target: collar spike protein, gp40 (Vibrio phage XM1); experiment: cryo-EM structure; purified XM1 virions in SM buffer; 6-fold-symmetric reconstruction of the portal and neck region and 12-fold-symmetric reconstruction of the portal, 3.6Å; interfaces analysed with PISA
[3] = target: dodecameric head completion protein, gp1 (Vibrio phage XM1); experiment: as above
[4] = target: hexameric head completion protein, gp4 (Vibrio phage XM1); experiment: as above
[5] = target: major capsid protein (MCP), gp54 (Vibrio phage XM1); experiment: cryo-EM structure; purified XM1 virions in SM buffer; icosahedrally averaged reconstruction of the capsid, 3.2Å
[6] = target: minor capsid protein (decoration protein, Dec), gp53 (Vibrio phage XM1); experiment: as above
[7] = target: portal protein, gp49 (Vibrio phage XM1); experiment: cryo-EM structure; purified XM1 virions in SM buffer; 6-fold-symmetric reconstruction of the portal and neck region and 12-fold-symmetric reconstruction of the portal, 3.6Å; interfaces analysed with PISA
[8] = target: tail sheath protein, gp6 (Vibrio phage XM1); experiment: cryo-EM structure; empty XM1 particles with contracted tail sheath (post-infection form); 6-fold-symmetric reconstruction, 9.1Å; models of the extended state fitted (Situs ddforge, Coot)
[9] = target: tail sheath protein, gp6 (Vibrio phage XM1); experiment: cryo-EM structure; purified XM1 virions in SM buffer; 6-fold-symmetric reconstruction of the distal part of the extended tail (baseplate, part of tail tube and sheath), 3.2Å; interfaces analysed with PISA
[10] = target: tail terminator protein, gp5 (Vibrio phage XM1); experiment: cryo-EM structure; purified XM1 virions in SM buffer; 6-fold-symmetric reconstruction of the portal and neck region and 12-fold-symmetric reconstruction of the portal, 3.6Å; interfaces analysed with PISA
[11] = target: tail tube protein, gp7 (Vibrio phage XM1); experiment: cryo-EM structure; purified XM1 virions in SM buffer; 6-fold-symmetric reconstruction of the distal part of the extended tail (baseplate, part of tail tube and sheath), 3.2Å; interfaces analysed with PISA

Substance: central baseplate organization protein, gp11 (natural protein)
- stoichiometry N [1]: 6

Substance: collar spike protein, gp40 (natural protein)
- stoichiometry N [2]: 3

Substance: dodecameric head completion protein, gp1 (natural protein)
- stoichiometry N [3]: 12

Substance: hexameric head completion protein, gp4 (natural protein)
- stoichiometry N [4]: 6

Substance: major capsid protein (MCP), gp54 (natural protein)
- stoichiometry N [5]: 6 and 5

Substance: minor capsid protein (decoration protein, Dec), gp53 (natural protein)
- stoichiometry N [6]: 3

Substance: portal protein, gp49 (natural protein)
- stoichiometry N [7]: 12

Substance: tail sheath protein, gp6 (natural protein)
- stoichiometry N [8]: 6
- stoichiometry N [9]: 6

Substance: tail terminator protein, gp5 (natural protein)
- stoichiometry N [10]: 6

Substance: tail tube protein, gp7 (natural protein)
- stoichiometry N [11]: 6
